From PMC11813103, “Interaction of cardiac leiomodin with the native cardiac thin filament” (PLOS Biology, 2025)

B1: Lmod2[451–492] (peptide)
peptide: PLPEKKLITRNIAEVIKQQESAQRALQNGQRKKKGKKVKKQP
notes: also called C-terminal Lmod2 fragment after the polyP region; source: synthetic peptide (Tufts University Core Facility)
B2: Lmod2[387–426] (peptide)
peptide: WQRGTPGSSPYASPRQSPWSSPKVSKKVHTGRSRPPSPVA
notes: also called C-terminal Lmod2 fragment between the LRR domain and the polyP region; source: synthetic peptide (Tufts University Core Facility)
B3: Lmod2[518–543] (peptide)
peptide: STPQRSVHENLMEAIRGSSIRQLRRV
notes: also called Lmod2 fragment containing the WH2 domain; source: synthetic peptide (Tufts University Core Facility)

molecular target: G-actin (UniProt P68135 1-377); assay: native gel or EMSA; 9% polyacrylamide, 10% glycerol, no SDS; fragments mixed with 5 μM G-actin at 1:2, 1:1, 1.5:1 and 2:1 molar ratios (Lmod2[518–543] at 2:1 only); densitometry of the actin band; settings: both partners purified

Point of comparison: B1, “percent of the actin in complex at a 2:1 fragment to actin molar ratio” value ~60%. Against it:
- B2 — higher, ~70%
- B3 — higher, ~90%
